Measured values: US20080058272A1 (published 2008)
Like-named read-outs stand apart in the source and are kept apart here.

T1: HLA-A2 (human, UniProt P04439 25-302 at identity 0.94))
T1 chain: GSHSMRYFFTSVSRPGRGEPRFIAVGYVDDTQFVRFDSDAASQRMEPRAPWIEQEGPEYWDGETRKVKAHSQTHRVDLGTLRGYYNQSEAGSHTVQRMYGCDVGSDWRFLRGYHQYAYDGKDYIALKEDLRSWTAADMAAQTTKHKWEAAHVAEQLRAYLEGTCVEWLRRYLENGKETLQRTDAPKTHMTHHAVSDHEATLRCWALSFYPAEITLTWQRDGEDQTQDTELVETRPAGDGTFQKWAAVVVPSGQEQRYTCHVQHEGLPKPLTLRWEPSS


Key:
[1] = target: T1, HLA-A2; assay: competitive binding assay (flow cytometry)
[2] = target: T1, HLA-A2; assay: competitive binding assay (flow cytometry)

IC50 [1] [µM] | IC50 [2] [µM] | Binder
13.3 |  | LLYAVYRKL [FAPα^584-592]
15.3 |  | YLASKEGMV [FAPα^560-568]
33.8 | 33.8 | KILEENKEL [FAPα^486-494]
5.6 |  | GLFKCGIAV [FAPα^639-647]
8 |  | YLESDYSKL [FAPα^113-121]
9.1 |  | GLSPDRQFV [FAPα^104-112]
4.7 | 4.7 | ALVCYGPGI [FAPα^463-471]
